B1: Cilia- and flagella-associated protein 418 (Homo sapiens), Q96NL8 (parent)
chain: MAEDLDELLDEVESKFCTPDLLRRGMVEQPKGCGGGTHSSDRNQAKAKETLRSTETFKKEDDLDSLINEILEEPNLDKKPSKLKSKSSGNTSVRASIEGLGKSCSPVYLGGSSIPCGIGTNISWRACDHLRCIACDFLVVSYDDYMWDKSCDYLFFRNNMPEFHKLKAKLIKKKGTRAYACQCSWRTIEEVTDLQTDHQLRWVCGKH
partner: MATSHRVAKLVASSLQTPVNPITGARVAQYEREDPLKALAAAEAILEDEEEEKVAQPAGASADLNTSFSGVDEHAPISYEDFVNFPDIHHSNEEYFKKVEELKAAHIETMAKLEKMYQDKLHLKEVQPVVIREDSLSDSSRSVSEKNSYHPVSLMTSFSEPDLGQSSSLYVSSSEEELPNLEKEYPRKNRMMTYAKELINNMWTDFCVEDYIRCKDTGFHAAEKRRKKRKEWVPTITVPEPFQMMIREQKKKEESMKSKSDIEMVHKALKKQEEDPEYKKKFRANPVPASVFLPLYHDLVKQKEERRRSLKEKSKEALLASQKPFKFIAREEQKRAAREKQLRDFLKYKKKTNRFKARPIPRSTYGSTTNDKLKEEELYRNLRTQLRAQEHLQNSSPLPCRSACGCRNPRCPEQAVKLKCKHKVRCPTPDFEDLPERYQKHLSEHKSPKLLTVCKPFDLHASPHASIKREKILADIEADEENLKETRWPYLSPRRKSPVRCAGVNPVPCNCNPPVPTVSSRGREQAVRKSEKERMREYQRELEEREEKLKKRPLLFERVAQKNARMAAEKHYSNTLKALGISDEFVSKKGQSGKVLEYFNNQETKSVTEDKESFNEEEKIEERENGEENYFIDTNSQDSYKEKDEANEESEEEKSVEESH

Variants of: B1
Conditions: with FAM161A

Row | effect of a mutation on the interaction | Variant
1 | with no effect | R177W
2 | with no effect | Q182R

From IntAct's records for PubMed 36233334
